Target: T1, human GDNF family receptor alpha-1 (GFRα1) joined to an Fc domain at its C-terminus (human, UniProt P56159-2 25-445)
T1 construct: Bought from R&D Systems; also called GFRa1-hFc; human GFRα1 Fc chimera (R&D Systems); not shown: human Fc domain joined to the C-terminus of GFRα1
T1 sequence (looked up): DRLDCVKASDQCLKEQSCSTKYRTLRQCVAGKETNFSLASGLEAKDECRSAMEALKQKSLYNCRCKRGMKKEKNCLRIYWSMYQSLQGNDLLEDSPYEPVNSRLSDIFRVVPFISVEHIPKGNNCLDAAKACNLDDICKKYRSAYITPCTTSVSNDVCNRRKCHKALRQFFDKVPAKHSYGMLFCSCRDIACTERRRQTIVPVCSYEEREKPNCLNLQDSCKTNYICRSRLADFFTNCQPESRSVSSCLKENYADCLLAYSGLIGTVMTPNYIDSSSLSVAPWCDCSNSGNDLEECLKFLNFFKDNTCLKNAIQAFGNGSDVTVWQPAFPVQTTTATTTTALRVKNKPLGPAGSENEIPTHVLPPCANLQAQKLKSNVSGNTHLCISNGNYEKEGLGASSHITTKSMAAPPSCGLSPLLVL
Assay: SPR; GFRα1-Fc chimera captured on CM5 chip by His-tag capture kit, analyte flowed over; apparent KD (KD,app)
Description: Surface Plasmon Resonance (SPR) was used to determine the binding affinities of the GDNF fusion polypeptides to GFRα1. The GDNF fusion polypeptides in this example include fusion polypeptides 2-4 as described in Example 1, as well as Fc (T366W)-GGG-hGDNF₁₁₇₋₂₁₁ (SEQ ID NO: 37) (fusion polypeptide 6) which has an Fc domain having the amino acid substitution T366W (relative to the sequence of human IgG1) joined to the N-terminus of the GDNF variant having amino acids 117-211 of SEQ ID NO: 1 through a GGG linker. The SPR assay was configured to capture human GFRα1, GFRα2, and GFRα3 Fc chimeras (R&D Systems) onto a CM5 chip surface using His-tag capture kit (GE Healthcare) to appropriate levels for kinetic analysis. GDNF fusion polypeptides were flowed over the immobilized GFRs to measure the kinetics of GDNF fusion polypeptide and GFR association and dissociation. The binding of various concentrations of GDNF fusion polypeptides was measured in HBS-EP buffer (GE Healthcare) at a flow rate of 30 μL/min. Binding curves were fitted using Scrubber2 software to obtain apparent binding affinities and kinetic constants.

B1: R&D hGDNF (ligand, human, UniProt P39905 78-211, looked up)
chain: SPDKQMAVLPRRERNRQAAAANPENSRGKGRRGQRGKNRGCVLTAIHLNVTDLGLGYETKEELIFRYCSGSCDAAETTYDKILKNLSRNRRLVSDKVGQACCRPIAFDDDLSFLDDNLVYHILRKHSAKRCGCI
notes: also called human glial-derived neurotrophic factor
Kd: ~0.9 nM

— patent US20260022150A1 (KEROS THERAPEUTICS, published 2026)
